# Molecular target: Recombinantly expressed GPIb protein fragment of a gain-of-function mutant of the human GPIb protein (human) (UniProt P07359)
# Assay: latex agglutination VWF activity assay; HBR total protein up to 0.02 mg/mL in solution, comparison control
# UniProt P07359, sequence (P07359 other isoform, or with tags, fused parts or gaps mutant): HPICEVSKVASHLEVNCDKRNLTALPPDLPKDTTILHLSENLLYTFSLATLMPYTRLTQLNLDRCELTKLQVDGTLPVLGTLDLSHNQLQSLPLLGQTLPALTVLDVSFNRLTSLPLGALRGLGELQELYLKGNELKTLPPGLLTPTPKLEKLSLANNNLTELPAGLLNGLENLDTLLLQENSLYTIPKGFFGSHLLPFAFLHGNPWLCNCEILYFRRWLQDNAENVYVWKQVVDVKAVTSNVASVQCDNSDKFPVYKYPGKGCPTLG
substance,measurement,value
"HBR-1 reagent (Heterophilic Blocking Reagent 1, Scantibodies Laboratory, Inc.) containing a mixture of mouse immunoglobulins",reduction of the VWF activity measured,< 2.6%
